Laboratory results taken from patent publication US20250051443A1 (NATIONAL RESEARCH COUNCIL OF CANADA, published 2025).

How the values were obtained:
human CD3 [1] = target: T1, human CD3 (human, UniProt P07766 23-207; P09693 23-182; P04234 22-171); experiment: cell-based or functional assay
human CD3 [2] = target: T1, human CD3; experiment: flow cytometry, hybridoma supernatant on CD3+ Jurkat cells
Method: Cells were stained with either negative control mouse IgG (Jackson Immunoresearch cat #115-000-003) or an anti-GFP 3E6 mAb supernatant or tested hybridoma supernatant. Specific binding was reflected by the increase in the mean fluorescent intensity of antibody binding to Jurkat T-cells (FIGS. 1A to 1F, grey histograms) compared to the Jurkat CD3 negative cell line J.RT3-T3.5 (FIGS. 1A to 1F, open histograms). AF488 labeled positive control mAb OKT3 was also analyzed.

human CD3 [3] = target: T1, human CD3; experiment: apparent KD (KDapp), flow cytometry titration on purified primary human T cells
Method: The binding characteristics of the purified anti-CD3 mAbs were assessed in titration studies on purified human primary T cells from different donor samples. Fresh ex vivo peripheral blood mononuclear cells (PBMCs) were obtained via density centrifugation over Ficoll-Paque using standard procedures and untouched T cell fractions obtained from PBMCs by negative pan-T cell selection and magnetic cell sorting. Starting from 300 nM concentrations of the anti-CD3 mAbs, eight point binding curves were generated from the resultant mean fluorescence intensity (MFI) values obtained through detection of labelled secondary antibody to bound CD3 in flow cytometry experiments (FIGS. 3A and 3B). Both commercial mouse anti-human CD3 mAb (OKT-3; Biolegend) and an in house generated IgG1 version of OKT-3 were employed as positive controls together with a non-specific mouse IgG serving as a negative binding control. Following curve fit analysis using one-site specific binding with Hill slope, the KDapp (concentration needed to achieve a half-maximum binding at equilibrium) for each mAb was calculated (Table 2).
Eight point binding titrations were performed with the anti-CD3 mAbs starting at either 300 or 100 nM on freshly purified human T cells obtained through negative selection from PBMC fractions. Briefly, 1×10⁵ human T cells (50 μL of staining buffer (SB; PBS/1% BSA/0.01% NaN3) were incubated with graded dilutions of the anti-CD3 mAbs in SB ([…]) for 2 hours at 4° C. in 96 w U-bottom plates, followed by plate washing with SB ([…]). Cell pellets were resuspended with 25 μL of a 0.25 mg/mL solution of the goat (Fab′)₂ anti-mouse IgG (H+L)− APC secondary antibody in SB, incubated at 4° C. (30 min.), washed 1× with SB, and resuspended for flow analysis. Recombinant anti-human OKT-3 IgG2b (in house produced) and non-specific mIgG were employed similarly as positive and negative controls respectively. 10K live events were acquired on a BD LSRFortessa flow analyzer and mean fluorescence intensities (MFI) calculated after subtraction of secondary antibody alone values. Using GraphPad Prism software, the data were analyzed using a one site specific binding with Hill slope non-linear regression model to calculate KDapp and BMax values (See Table 2).

human CD3 [4] = target: T1, human CD3; experiment: flow competition on Jurkat, 100 nM unlabeled mAb; competitor AF488-SK7 1.5 nM
Method: (§1) In order to evaluate whether anti-CD3 monoclonal antibodies bind to the same epitope region, flow cytometry competition experiments on Jurkat cells were performed.
(§2) To that effect, a fixed concentration of the indicated AF488-labeled mAb were incubated with 100 nM of unlabeled monoclonal antibodies to assess if their binding capacity was impaired in presence of unlabeled mAbs. […] The AF488-OKT3 mIgG2b was labeled in-house using AlexaFluor488 protein labelling kit (Invitrogen #A10235) following manufacturer's instruction. The free dye removal step was done using Zeba™ Spin Desalting Columns, 7K MWCO (Thermo Scientific #89890). The final product was analyzed by UPLC-SEC to ensure the integrity of the labeled mAb.

human CD3 [5] = target: T1, human CD3; experiment: cell-based or functional assay; remark: listed apart in the source
human CD3 [6] = target: T1, human CD3; experiment: apparent KD (KDapp), flow cytometry titration on Jurkat cells
Method: Unless otherwise stated, all media are kept are 4° C. and all incubations are performed on wet ice. Exponentially growing Jurkat cells were centrifuged and resuspended in complete medium at a cell density of 2×10⁶ cells/mL. Fifty μL/well of cells were distributed in a polypropylene v-bottom 96 well plate and serial 1/3 dilutions of purified mAbs starting at 300 nM were added and incubated for 2 hours. Cells were washed twice by centrifugation and further incubated with a FITC labeled F(ab′)2 goat anti-mouse antibody (Fc specific, #115-096-071, Jackson Immunoresearch, Cedarlane, Burlington, ON) for an hour. Cells were washed and re-suspended in medium containing Propidium iodide to exclude dead cells from analysis. Samples were filtered through a 60 μm nylon mesh filter plate (Millipore, Ireland) to remove cell aggregates. Flow cytometry analyses were performed on 2,000 viable single-cells events gated on forward scattering, side scattering parameters and propidium iodide dye exclusion using a BD-LSRFortessa flow cytometer (Becton-Dickinson Biosciences, CA, USA) and a standard filter set using BD FACSDiva™ acquisition software, according to manufacturer's instructions.

human CD3 [7] = target: T1, human CD3; experiment: flow competition on Jurkat, 100 nM unlabeled mAb; competitor AF488-SP34.2 20 nM
Method: as §1, §2

human CD3 [8] = target: T1, human CD3; experiment: flow competition on Jurkat, 100 nM unlabeled mAb; competitor AF488-OKT-3 mIgG2b 1.5 nM
Method: as §1, §2

human CD3 [9] = target: T1, human CD3; experiment: flow competition on Jurkat, 100 nM unlabeled mAb; competitor AF488-UCHT1 5 nM
Method: as §1, §2

IC50, indirect ADC surrogate growth inhibition (anti-mouse-DM1) on Jurkat cells (human CD3 [1]) | Span, indirect ADC surrogate growth inhibition on Jurkat cells (human CD3 [1]) | MFI (human CD3 [2]) | Kd (human CD3 [3]) | % residual fluorescence of labeled mAb (human CD3 [4]) | % max ref. OKT3 (dTomato activation) (human CD3 [5]) | EC50 of dTomato induction (CD69 promoter), Jurkat-CD69-dTomato cells, 24 h (human CD3 [5]) | Kd (human CD3 [6]) | % residual fluorescence of labeled mAb (human CD3 [7]) | % residual fluorescence of labeled mAb (human CD3 [8]) | % residual fluorescence of labeled mAb (human CD3 [9]) | Binder
0.075 nM | 97% | 349 MFI | 0.47 nM | 42% | 98% | 0.13 µg/mL | 0.3 nM | 7% | 78% | 64% | F282-2D5 (antibody, V domains shown, also called F282-2D5-2) VH: QVQLQQPGTELVKPGASVKLSCKASGYTFTSYWMHWVKQRPGQGLEWIGNINPSNGGTNYNENFKTKATLTVDKSSSTAYMQLSSLTSEDSAVYYCARDRSGQYYFDYWGQGTTLTVSS VL: DIVMSQSPSSLAVSAGEKVTMSCKSSQSLLNSRTRKNYLAWYQQKPGQSPKLLIYWASTRESGVPDRFTGSGSGTDFTLTISSVQAEDLAVYYCIQSYHLRTFGGGTILEIK
0.038 nM | 92% | 398 MFI | 0.53 nM | 44% | 87% | 0.18 µg/mL | 0.5 nM | 9% | 78% | 76% | F332-4D6 (antibody, mouse IgG2a, V domains shown, also called F332-4D6-2; F322-4D6) VH: QVQLQQSGAELGKPGTSVKLSCKASGYTFTSYWIHWVKQRPGQGLEWIGNINPNSGSTNYNEKFKRKATLTADKSSSTAYMQLSTLTSEDFAVYYCTRDTSGQYYFDYWGQGTTLTVSS VL: DIVMSQSPSSLAVSAGEKVTMSCKSSQSLLNSRTRKNYLAWYQQKPGQSPKVLIYWASTRESGVPDRFTGSGSGTDFTLTISSVQAEDLAVYYCKQSYHLRTFGGGTKLEIK
0.072 nM | 96% | 247 MFI | 0.46 nM | 44% | 86% | 0.25 µg/mL | 0.8 nM | 10% | 89% | 73% | F332-6D7 (antibody, mouse IgG2a, V domains shown, also called F332-6D7-2; F332-6D7 (7G4)) VH: QVQLQQPGAELGKPGTSVNLSCKASGYTFTSYWMHWVKQRPGQGLDWIGNINPNSGTTNYNEKFKSKATLTVDKSSSTAYMQLSTLTSEDSAVYYCTRDISGQYYFDYWGQGTSLTVSS VL: DIVMSQSPSSLAVSAGEKVTMSCKSSQSLLNSRTRKNYLAWYQQKPGQSPKLLIYWASTRESGVPDRFTGSGSGTDFTLTISSVQAEDLAVYYCKQSYSLRTFGGGSKLEIK

Continued, binder first:

Binder | IC50, indirect ADC surrogate growth inhibition (anti-mouse-DM1) on Jurkat cells (human CD3 [1]) | Span, indirect ADC surrogate growth inhibition on Jurkat cells (human CD3 [1]) | MFI (human CD3 [2]) | Kd (human CD3 [3]) | % residual fluorescence of labeled mAb (human CD3 [4]) | % max ref. OKT3 (dTomato activation) (human CD3 [5]) | EC50 of dTomato induction (CD69 promoter), Jurkat-CD69-dTomato cells, 24 h (human CD3 [5]) | Kd (human CD3 [6]) | % residual fluorescence of labeled mAb (human CD3 [7]) | % residual fluorescence of labeled mAb (human CD3 [8]) | % residual fluorescence of labeled mAb (human CD3 [9])
F332-1C9 (antibody, mouse IgG2a, V domains shown, Sister clones 1A10, 5H8, 8B11 share the same entries; also called F332-1C9-2; F332-1C9 (1A10, 5H8, 8B11)) VH: QVQLQQPGAELGKPGTSVNLSCKASGYTFTSYWMHWVKQRPGQGLDWIGNINPNSGTTNYNEKFKSKATLTVDKSSSTAYMQLSTLTSEDSAVYYCTRDISGQYYFDYWGQGTSLTVSS VL: DIVMSQSPSSLAVSAGEKVTMSCKSSQSLLNSRTRKNYLAWYQQKPGQSPKLLIYWASTRESGVPDRFTGSGSGTDFTLIISSVQAEDLAVYYCKQSYSLRTFGGGTKLEIK | 0.072 nM | 94% | 277 MFI | 0.94 nM | 45% | 94% | 0.2 µg/mL | 0.5 nM | 12% | 89% | 76%
F332-1E2 (antibody, mouse IgG2a, V domains shown, Sister clone 8C5 shares the same entries; also called F332-1E2-2; F332-1E2 (8C5)) VH: QVQLQQPGAELGKPGTSVKLSCKASGYTFTSYWIHWVKQRPGQGLEWVGNINPNSGSINYNEKFKNKATLTVDKSSSTAYMQLSTLTSEDFAVYYCTRDTSGQYYFDYWGQGTTLTVSS VL: DIVMSQSPSSLAVSAGERVTMSCKSSQSLLNSRTRKNYLAWYQQKPGQSPKLLIYWASTRESGVPDRFTGSGSGTDFTLTISSVQAEDLAVYYCIQSYHLRTFGGGTKLEIK | 0.031 nM | 95% | 319 MFI | 0.4 nM | 42% | 104% | 0.16 µg/mL | 0.3 nM | 6% | 77% | 69%
F332-3E9 (antibody, mouse IgG2a, V domains shown, also called F332-3E9-2; F332-3E9 (12G4)) VH: QVQLQQPGAELGKPGTSVKLSCKASGYTFTSYWIHWLKQRPGQGLEWIGNINPNGGSINCNEKFTTKATLTIDKSSSTAYMQLSTLTSEDFAVYYCTRDTSGQYYFDYWGQGTTLTVSS VL: DIMMSQSPSSLAVSAGEKVTMSCKSSQSLLNSRTRKNYLAWYQQKPGQSPKLLIYWASTRESGVPDRFTGSGSGTDFTLTISSVQAEDLAVYYCTQSYHLRTFGGGTKLEIK | 0.05 nM | 94% | 297 MFI | 1 nM | 45% | 84% | 0.11 µg/mL | 0.5 nM | 11% | 79% | 76%
